Experimental findings from patent US20210388087A1 (Chugai, published 2021) are described below.

To fix the notation:
B1: CE115HA000/GLS3000 N53E (antibody, IgG1, name in Kabat numbering, V domains shown)
VH: QVQLVESGGGVVQPGRSLRLSCAASGFTFSNAWMHWVRQAPGKGLEWVAQIKAKSNNYATYYAESVKGRFTISRDDSKNSLYLQMNSLKTEDTAVYYCRYVHYGAYYGVDAWGQGTTVTVSS
VL: DIVMTQSPLSLPVTPGEPASISCRSSQSLVHSNRNTYLHWYQQKPGQAPRLLIYKVSERFSGVPDRFSGSGSGTDFTLKISRVEAEDVGVYYCGQGTQVPYTFGQGTKLEIK
notes: one-arm IgG1
B2: CE115HA000/GLS3000 N53T (antibody, IgG1, name in Kabat numbering, V domains shown)
VH: QVQLVESGGGVVQPGRSLRLSCAASGFTFSNAWMHWVRQAPGKGLEWVAQIKAKSNNYATYYAESVKGRFTISRDDSKNSLYLQMNSLKTEDTAVYYCRYVHYGAYYGVDAWGQGTTVTVSS
VL: DIVMTQSPLSLPVTPGEPASISCRSSQSLVHSNRNTYLHWYQQKPGQAPRLLIYKVSTRFSGVPDRFSGSGSGTDFTLKISRVEAEDVGVYYCGQGTQVPYTFGQGTKLEIK
notes: one-arm IgG1
B3: CE115HA000/GLS3000 N53H (antibody, IgG1, name in Kabat numbering, V domains shown)
VH: QVQLVESGGGVVQPGRSLRLSCAASGFTFSNAWMHWVRQAPGKGLEWVAQIKAKSNNYATYYAESVKGRFTISRDDSKNSLYLQMNSLKTEDTAVYYCRYVHYGAYYGVDAWGQGTTVTVSS
VL: DIVMTQSPLSLPVTPGEPASISCRSSQSLVHSNRNTYLHWYQQKPGQAPRLLIYKVSHRFSGVPDRFSGSGSGTDFTLKISRVEAEDVGVYYCGQGTQVPYTFGQGTKLEIK
notes: one-arm IgG1
B4: CE115HA000/GLS3000 N53R (antibody, IgG1, name in Kabat numbering, V domains shown)
VH: QVQLVESGGGVVQPGRSLRLSCAASGFTFSNAWMHWVRQAPGKGLEWVAQIKAKSNNYATYYAESVKGRFTISRDDSKNSLYLQMNSLKTEDTAVYYCRYVHYGAYYGVDAWGQGTTVTVSS
VL: DIVMTQSPLSLPVTPGEPASISCRSSQSLVHSNRNTYLHWYQQKPGQAPRLLIYKVSRRFSGVPDRFSGSGSGTDFTLKISRVEAEDVGVYYCGQGTQVPYTFGQGTKLEIK
notes: one-arm IgG1
B5: CE115HA000/GLS3000 P95E (antibody, IgG1, name in Kabat numbering, V domains shown)
VH: QVQLVESGGGVVQPGRSLRLSCAASGFTFSNAWMHWVRQAPGKGLEWVAQIKAKSNNYATYYAESVKGRFTISRDDSKNSLYLQMNSLKTEDTAVYYCRYVHYGAYYGVDAWGQGTTVTVSS
VL: DIVMTQSPLSLPVTPGEPASISCRSSQSLVHSNRNTYLHWYQQKPGQAPRLLIYKVSNRFSGVPDRFSGSGSGTDFTLKISRVEAEDVGVYYCGQGTQVEYTFGQGTKLEIK
notes: one-arm IgG1
B6: CE115HA000/GLS3000 N53V (antibody, IgG1, name in Kabat numbering, V domains shown)
VH: QVQLVESGGGVVQPGRSLRLSCAASGFTFSNAWMHWVRQAPGKGLEWVAQIKAKSNNYATYYAESVKGRFTISRDDSKNSLYLQMNSLKTEDTAVYYCRYVHYGAYYGVDAWGQGTTVTVSS
VL: DIVMTQSPLSLPVTPGEPASISCRSSQSLVHSNRNTYLHWYQQKPGQAPRLLIYKVSVRFSGVPDRFSGSGSGTDFTLKISRVEAEDVGVYYCGQGTQVPYTFGQGTKLEIK
notes: one-arm IgG1
B7: CE115HA000/GLS3000 N53F (antibody, IgG1, name in Kabat numbering, V domains shown)
VH: QVQLVESGGGVVQPGRSLRLSCAASGFTFSNAWMHWVRQAPGKGLEWVAQIKAKSNNYATYYAESVKGRFTISRDDSKNSLYLQMNSLKTEDTAVYYCRYVHYGAYYGVDAWGQGTTVTVSS
VL: DIVMTQSPLSLPVTPGEPASISCRSSQSLVHSNRNTYLHWYQQKPGQAPRLLIYKVSFRFSGVPDRFSGSGSGTDFTLKISRVEAEDVGVYYCGQGTQVPYTFGQGTKLEIK
notes: one-arm IgG1
B8: CE115HA000/GLS3000 N53G (antibody, IgG1, name in Kabat numbering, V domains shown)
VH: QVQLVESGGGVVQPGRSLRLSCAASGFTFSNAWMHWVRQAPGKGLEWVAQIKAKSNNYATYYAESVKGRFTISRDDSKNSLYLQMNSLKTEDTAVYYCRYVHYGAYYGVDAWGQGTTVTVSS
VL: DIVMTQSPLSLPVTPGEPASISCRSSQSLVHSNRNTYLHWYQQKPGQAPRLLIYKVSGRFSGVPDRFSGSGSGTDFTLKISRVEAEDVGVYYCGQGTQVPYTFGQGTKLEIK
notes: one-arm IgG1
B9: CE115HA000/GLS3000 N53Y (antibody, IgG1, name in Kabat numbering, V domains shown)
VH: QVQLVESGGGVVQPGRSLRLSCAASGFTFSNAWMHWVRQAPGKGLEWVAQIKAKSNNYATYYAESVKGRFTISRDDSKNSLYLQMNSLKTEDTAVYYCRYVHYGAYYGVDAWGQGTTVTVSS
VL: DIVMTQSPLSLPVTPGEPASISCRSSQSLVHSNRNTYLHWYQQKPGQAPRLLIYKVSYRFSGVPDRFSGSGSGTDFTLKISRVEAEDVGVYYCGQGTQVPYTFGQGTKLEIK
notes: one-arm IgG1
B10: CE115HA000/GLS3000 P95D (antibody, IgG1, name in Kabat numbering, V domains shown)
VH: QVQLVESGGGVVQPGRSLRLSCAASGFTFSNAWMHWVRQAPGKGLEWVAQIKAKSNNYATYYAESVKGRFTISRDDSKNSLYLQMNSLKTEDTAVYYCRYVHYGAYYGVDAWGQGTTVTVSS
VL: DIVMTQSPLSLPVTPGEPASISCRSSQSLVHSNRNTYLHWYQQKPGQAPRLLIYKVSNRFSGVPDRFSGSGSGTDFTLKISRVEAEDVGVYYCGQGTQVDYTFGQGTKLEIK
notes: one-arm IgG1
B11: CE115HA000/GLS3000 P95G (antibody, IgG1, name in Kabat numbering, V domains shown)
VH: QVQLVESGGGVVQPGRSLRLSCAASGFTFSNAWMHWVRQAPGKGLEWVAQIKAKSNNYATYYAESVKGRFTISRDDSKNSLYLQMNSLKTEDTAVYYCRYVHYGAYYGVDAWGQGTTVTVSS
VL: DIVMTQSPLSLPVTPGEPASISCRSSQSLVHSNRNTYLHWYQQKPGQAPRLLIYKVSNRFSGVPDRFSGSGSGTDFTLKISRVEAEDVGVYYCGQGTQVGYTFGQGTKLEIK
notes: one-arm IgG1
B12: CE115HA000/GLS3000 N53S (antibody, IgG1, name in Kabat numbering, V domains shown)
VH: QVQLVESGGGVVQPGRSLRLSCAASGFTFSNAWMHWVRQAPGKGLEWVAQIKAKSNNYATYYAESVKGRFTISRDDSKNSLYLQMNSLKTEDTAVYYCRYVHYGAYYGVDAWGQGTTVTVSS
VL: DIVMTQSPLSLPVTPGEPASISCRSSQSLVHSNRNTYLHWYQQKPGQAPRLLIYKVSSRFSGVPDRFSGSGSGTDFTLKISRVEAEDVGVYYCGQGTQVPYTFGQGTKLEIK
notes: one-arm IgG1
B13: CE115HA000/GLS3000 P95L (antibody, IgG1, name in Kabat numbering, V domains shown)
VH: QVQLVESGGGVVQPGRSLRLSCAASGFTFSNAWMHWVRQAPGKGLEWVAQIKAKSNNYATYYAESVKGRFTISRDDSKNSLYLQMNSLKTEDTAVYYCRYVHYGAYYGVDAWGQGTTVTVSS
VL: DIVMTQSPLSLPVTPGEPASISCRSSQSLVHSNRNTYLHWYQQKPGQAPRLLIYKVSNRFSGVPDRFSGSGSGTDFTLKISRVEAEDVGVYYCGQGTQVLYTFGQGTKLEIK
notes: one-arm IgG1
B14: CE115HA000/GLS3000 N53K (antibody, IgG1, name in Kabat numbering, V domains shown)
VH: QVQLVESGGGVVQPGRSLRLSCAASGFTFSNAWMHWVRQAPGKGLEWVAQIKAKSNNYATYYAESVKGRFTISRDDSKNSLYLQMNSLKTEDTAVYYCRYVHYGAYYGVDAWGQGTTVTVSS
VL: DIVMTQSPLSLPVTPGEPASISCRSSQSLVHSNRNTYLHWYQQKPGQAPRLLIYKVSKRFSGVPDRFSGSGSGTDFTLKISRVEAEDVGVYYCGQGTQVPYTFGQGTKLEIK
notes: one-arm IgG1
B15: CE115HA000/GLS3000 P95A (antibody, IgG1, name in Kabat numbering, V domains shown)
VH: QVQLVESGGGVVQPGRSLRLSCAASGFTFSNAWMHWVRQAPGKGLEWVAQIKAKSNNYATYYAESVKGRFTISRDDSKNSLYLQMNSLKTEDTAVYYCRYVHYGAYYGVDAWGQGTTVTVSS
VL: DIVMTQSPLSLPVTPGEPASISCRSSQSLVHSNRNTYLHWYQQKPGQAPRLLIYKVSNRFSGVPDRFSGSGSGTDFTLKISRVEAEDVGVYYCGQGTQVAYTFGQGTKLEIK
notes: one-arm IgG1
B16: CE115HA000/GLS3000 N53W (antibody, IgG1, name in Kabat numbering, V domains shown)
VH: QVQLVESGGGVVQPGRSLRLSCAASGFTFSNAWMHWVRQAPGKGLEWVAQIKAKSNNYATYYAESVKGRFTISRDDSKNSLYLQMNSLKTEDTAVYYCRYVHYGAYYGVDAWGQGTTVTVSS
VL: DIVMTQSPLSLPVTPGEPASISCRSSQSLVHSNRNTYLHWYQQKPGQAPRLLIYKVSWRFSGVPDRFSGSGSGTDFTLKISRVEAEDVGVYYCGQGTQVPYTFGQGTKLEIK
notes: one-arm IgG1
B17: CE115HA000/GLS3000 N53P (antibody, IgG1, name in Kabat numbering, V domains shown)
VH: QVQLVESGGGVVQPGRSLRLSCAASGFTFSNAWMHWVRQAPGKGLEWVAQIKAKSNNYATYYAESVKGRFTISRDDSKNSLYLQMNSLKTEDTAVYYCRYVHYGAYYGVDAWGQGTTVTVSS
VL: DIVMTQSPLSLPVTPGEPASISCRSSQSLVHSNRNTYLHWYQQKPGQAPRLLIYKVSPRFSGVPDRFSGSGSGTDFTLKISRVEAEDVGVYYCGQGTQVPYTFGQGTKLEIK
notes: one-arm IgG1
B18: CE115HA000/GLS3000 N53L (antibody, IgG1, name in Kabat numbering, V domains shown)
VH: QVQLVESGGGVVQPGRSLRLSCAASGFTFSNAWMHWVRQAPGKGLEWVAQIKAKSNNYATYYAESVKGRFTISRDDSKNSLYLQMNSLKTEDTAVYYCRYVHYGAYYGVDAWGQGTTVTVSS
VL: DIVMTQSPLSLPVTPGEPASISCRSSQSLVHSNRNTYLHWYQQKPGQAPRLLIYKVSLRFSGVPDRFSGSGSGTDFTLKISRVEAEDVGVYYCGQGTQVPYTFGQGTKLEIK
notes: one-arm IgG1
B19: CE115HA000/GLS3000 N53Q (antibody, IgG1, name in Kabat numbering, V domains shown)
VH: QVQLVESGGGVVQPGRSLRLSCAASGFTFSNAWMHWVRQAPGKGLEWVAQIKAKSNNYATYYAESVKGRFTISRDDSKNSLYLQMNSLKTEDTAVYYCRYVHYGAYYGVDAWGQGTTVTVSS
VL: DIVMTQSPLSLPVTPGEPASISCRSSQSLVHSNRNTYLHWYQQKPGQAPRLLIYKVSQRFSGVPDRFSGSGSGTDFTLKISRVEAEDVGVYYCGQGTQVPYTFGQGTKLEIK
notes: one-arm IgG1
B20: CE115HA000/GLS3000 N53M (antibody, IgG1, name in Kabat numbering, V domains shown)
VH: QVQLVESGGGVVQPGRSLRLSCAASGFTFSNAWMHWVRQAPGKGLEWVAQIKAKSNNYATYYAESVKGRFTISRDDSKNSLYLQMNSLKTEDTAVYYCRYVHYGAYYGVDAWGQGTTVTVSS
VL: DIVMTQSPLSLPVTPGEPASISCRSSQSLVHSNRNTYLHWYQQKPGQAPRLLIYKVSMRFSGVPDRFSGSGSGTDFTLKISRVEAEDVGVYYCGQGTQVPYTFGQGTKLEIK
notes: one-arm IgG1
B21: CE115HA000/GLS3000 N53I (antibody, IgG1, name in Kabat numbering, V domains shown)
VH: QVQLVESGGGVVQPGRSLRLSCAASGFTFSNAWMHWVRQAPGKGLEWVAQIKAKSNNYATYYAESVKGRFTISRDDSKNSLYLQMNSLKTEDTAVYYCRYVHYGAYYGVDAWGQGTTVTVSS
VL: DIVMTQSPLSLPVTPGEPASISCRSSQSLVHSNRNTYLHWYQQKPGQAPRLLIYKVSIRFSGVPDRFSGSGSGTDFTLKISRVEAEDVGVYYCGQGTQVPYTFGQGTKLEIK
notes: one-arm IgG1

The target of this experiment is T1, CD3 epsilon homodimer protein (UniProt P07766 23-126).
T1 construct: also called CD3 (CD3 epsilon)
T1 sequence (P07766 23-126): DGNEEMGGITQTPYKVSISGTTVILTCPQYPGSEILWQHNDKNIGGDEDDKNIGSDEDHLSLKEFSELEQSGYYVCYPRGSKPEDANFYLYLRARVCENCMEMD
Description: SPR, antibody over immobilised CD3e homodimer.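 Also: SPR at 25 °C with CD3 epsilon homodimer amine-coupled to a CM4 sensor chip and antibody flowed over as analyte in HBS-EP+ running buffer.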 In general terms: SPR reads the build-up and loss of mass on a sensor chip optically.
With B1, the “KD ratio to GLS3000” value was 2.47. For the molecule B2, the “KD ratio to GLS3000” value amounted to 2.68. B3: the “KD ratio to GLS3000” value came to 1.31.

For the molecule B4, the “KD ratio to GLS3000” value turned out to be 1.56. In the case of B5, the “KD ratio to GLS3000” value turned out to be 1.01. The same measure for B6: 2.14. For the molecule B7, the “KD ratio to GLS3000” value is 0.96. For B8 the value was 1.33; for B9, 0.99; for B10, 2.37.

For the molecule B11, the “KD ratio to GLS3000” value amounted to 1.94. For B12 the value was 0.88; for B13, 11.7; for B14, 1.05.

Take B15: the “KD ratio to GLS3000” value was 0.87. For B16 the value was 1.01. The same measure for B17: 0.98. With B18, the “KD ratio to GLS3000” value stood at 1.62. For B19 the value was 1.28. The same measure for B20: 1.21; for B21: 2.69.
